Experimental data: a protein production outcome set (Wang et al. 2014)

Assay: label from the status in PepcDB records

Row | Sequence | protein production
1 | MEKFQENNILEDKKVCINENEEAWNKETYNAWIKRFGTAKEAAEKIKSMPEKKLNVLLDKFGDVKGKKIFNLMGSNGNKAVALALLGADVTVVDFSEGNRRYALDLAEACGVKINFILSDVLRMPKEVMSGDYDIVFAEMGILHYFSDLSPFMNVIHSLLKDGGKAVLRDFHPVSTKLITSRGSTAKVRKHKVTGDYFDTSLEEKEVAYSKYLEEGEVEKVFLRKWNLGEIVTAVANTGLKIESLTEEPNLSSDVFDKGIPKTFTIVARK | failed
2 | MEKHKIALISDWYFPKVGGIEYSIHALAKTLNQRGHKVHVITRCYPNIPEYNIRDGVAIIRIKSSPFPGQQRFLMPGAYKELYRLLKEGNYDIINSHGLDSPLGMIALIAARKLGIPSVVTNHSLVGHTPLRLYLYLAGKLLVGNADAVIAVSSAVEKDTKLMTKKPVYRIFNGMEYEESNPIAPLPFDRKGKLVIITVARMTKKKGVQNLIGLAPSFLKKYENLIFLMIGDGPLLKNLEKKVEESGLSENFYFTGEVPRKAVLEYLEQADIFALPSSDEAFGISILEAISKNVPVVAMNHSGISDIITHGVNGYLADNLSEFASCLQDLIEKPALRAEFARKAGEGLSNYDWNKIYEQTCRVYREVIYEKHHHNS | failed
3 | MEKIAILVDVQNVYYTCREQYGRHFDYNQFWSQVTQNRTVVKANAYAIASKDPQQRQFHHILRGIGFEVMLKPFIQRSDGSAKGDWDVGIALDGYELAQEVDTVVLVSGDGDFEPLVTRIAQRFQVKVEVYGVPKLTAQHLIDVASQFHPIEHRLL | failed
4 | MEKKKPFSVLLMGSDARPGETNGRADTIILATANKQQNAVEMVSIPRDTKVDYGNGDIGKINASYSNGGPSGTVSAVEKLMPGVPVDYFISINMEGFKDLVDAVGGITVYNDIDLTEVNSKFVKGNITLNGTDALQYVRIRHEDPRGDFGRQDRQRDVIIGIANKVISSSGVSNFESIMKAVGDNFQTNMTLTDITSMATNYSSVLKNVDSQELKGEGEMIYSESYGFDLYYFAPDETDLERVINMFKKSLDITELEHHHHHH | not failed
5 | MEKLKEFRGIKEHLGVFREAVKDAERIGFAGVPGVCTPFAQLFAYAVRDKDNIFIPNTDFSKARKLEVTEYGVELGEISPGNVDVLVLLGGLSMPGIGSDIEDVKKLVEDALEEGGELMGLCYMDMFARAGWYELLDFDCVINADIDGYVLRG | not failed
6 | MEKLLTVFTPTYNRVHTLHKCYESLKNQSCKDFKWLIIDDGSTDGTKDVVKRWIHEKNDFEITYIYQSNKGMHGAHNTAYENIDTELNICIDSDDYMPRDAVEKINKNWNRVKHNKKISGLVGLDSYENGDVIGKKFPEGLKEATLFEINNKYKIPGDKKLVYRSELTKKFPYPIFEGEKYVGLAYKYYKLDEEHRLALINDILCVVEYLEDGSSKNMIKQYKNNPKGFAFYRIENIKNSKATLKFKFKESIHYVASSFISKNKNFLIESPEKILTLLSIPMGMLLYLYIKIKG | failed
7 | MEKMLSTYIEEAMEFYAIGKGADFKAIIEKGIASCMTTYSTYDRELYKAYALLATYLSNHAFKIIKSRPAFQAMAINCFDQLDSLRQQHDPHLQVTKGFLWMLSSSRAQDADALLISVLRNHPKNILALIGRACLAYNRQDYIGALGYFKSVLLIQPQGMADVWVGIGHCFWKMGELEKAQLSFQIALEHNGQCLNAALALALVKFEHNDEQSYQDGKMLLTAAYKENNKNPDLLSILAGMYYADGNHKLVWSFAGNAIKFTANKHIESRNYFQIAKSYHATGQFESAKKYYLLSAKSAPDGYILPLVGVAQMYLHEGELNRSKAFLESFLTSEPDEPVVMDLLAKIYLEYKCPEKIDKAIEMLVKVVESASYHQNTNSWLNLAFAYEQKRLWAHGVNAYQKAIDIYLSQGHQIPIEWLNNLASSQLMAKMPEKALNTLDDALSKCRVMNSDNKTTNLLSLQYNRGLVLEELHMFTLAAENYKSITKEYSSYHDCYLRLGVMAIQKNNHTQAIEHLKDILVEDNLNMTARTYMGDCFKGLSLDKFATFNYNMILARQSKFTNTYVSMAMGNFCLEKLQNWIAEGNFRAARKQQEKALQCFGKILDCNPKNLWAANGIGAVLSSCNNLSAGGAIFKQIIECGNKCIPAIINSAHIALVSGQYRLAIQTYERCLKDHLPKNRVDVMHCLAKALYDNGDARKAKMWLLKVRHLVPHDPFVIFNLGLAIKKETEQALALPRPQLDELMGLDGLLKVAFKLFCHINLNHPKISVRVSAKYAEDCQNLMTELIAKKRQASESHAMEEDRVQLQKQRYRDHIEHQRQQELQREEEERVRRENLKIQRKEVLERTRKIISAPLAPDVPKKSAGNGRAKKNQENGDGKAKKSGPPKKKTRKRAAGKEQEDIEPLKKPKSKEFIDTDDDNSE | failed
8 | MEKNDIFVVIPAYNEEKMIKNTLINLKSHGYENIIVVDDGSRDNTSKIAISEEVIVCKHIINRGLGGALKTGLKCAVKYNPKVIVTFDADGQHDPEDIFKVSEPILEDSFDVVVGSRLIDENELKNMPLIKKIGNWGLNFITYLMGGRMVTDSQGGLRAFSYDAAEIVSKQLKSNRYEVSSEFIVLFKKNNLKFKEVPIKTIYTEYSMARGTNVITGFKILFKLLIQKLILEHHHHHH | not failed
9 | MEKNSLFSQRIRLRHLHTFVAVAQQGTLGRAAETLNLSQPALSKTLNELEQLTGARLFERGRQGAQLTLPGEQFLTHAVRVLDAINTAGRSLHRKEGLNNDVVRVGALPTAALGILPSVIGQFHQQQKETTLQVATMSNPMILAGLKTGEIDIGIGRMSDPELMTGLNYELLFLESLKLVVRPNHPLLQENVTLSRVLEWPVVVSPEGTAPRQHSDALVQSQGCKIPSGCIETLSASLSRQLTVEYDYVWFVPSGAVKDDLRHATLVALPVPGHGAGEPIGILTRVDATFSSGCQLMINAIRKSMPF | failed
10 | MEKQIFCQFLVVMMLLSSSQIQGDLRKGCYDLGITVLMGCPDSIDKKLPAPPTPSEGCCTLVRTIGMKCVCEIVNKKIEDTIDMQKLVNVAAACGRPLAPGSQCGSYRVPGA | failed
11 | MEKRELKASVPKFDKIPWLSEASLVNKPLVLSLPRRYPHTSATFLTSSKKNMNLPILFQVPDVLSKARRNQCDSMLLRNQQLCSTCQEMKMVQPRTMKIPDDPKASFENCMSYRMSLHQPKFQTTPEPFHDDIPTENIHYRLPILGPRTAVFHGLLTEAYKTLKERQRSSLPRKEPIGKTTRQ | failed
12 | MEKSKIINYWDKRAESFSKNKLAELESTHAQKWIEEINNINPIQPGMKILDIGTGAGFLAILCGNLGSDVTGIDLSPEMIQSAKQNAESHHQDIHFQVMDAESLQFNDETFDMVISRNVTWLLPNTKAAYQEWLRVLKPNGKLINIDANYGNDSFTDYKSLNTEHAHHTLGKDMLAESEAIKQNIPINHQPRPQTDMDILKSLGFDHIHLDTEIYLRMYSEQDEFYNPTPIFLISVTKSY | failed
13 | MELASPISSSFLEAFSRLSLERYSFLSIATSTIPSAAFLTTGFSSFNTSRAKLNASSMISGSLVLTTISFSTLRAETFFFSDFPFRMFLIQENIILATLIILAPRVATPSAAYSFIGSGLFSTIPINISESLVLISSGNSMKVTMAFIVSTACKTTVSSLSSNSLIRSGITSFTSSIPSSFFIASFFIMYRVPFFIKGSFSCNAFLSIDILFSLSSSTIWRAFLTLHPFKFSIYSS | failed
14 | MELETLFVIGMFLTFGALLMTGYPVAWVLGGTAVIWTVVGVVAVENFGANLWFDYQSSMGLVPERIWKVVSSETLVALPMFIFMGIMLDQSGVAERLMNSMVKLFGAVRGGYAVTVIVIGVLLAATTGIIGASVVLLGMLSLPVMMENKYDKGFAVGTACATGTLGILIPPSIMLVLMADRLAVPEASVGDLFMGAFFPGLMLGAMYVAYAIIRPMLQPNIAPVPEGTEKVSWAIVWDVAKAVVPTAALILGVLGSIFAGIATPTEASGVGALGALLLALMSGRLNLNVLNSSMQQTTRTAAFIFAIFLGATAFSVVLRGLGGDQVIEDALLGLPFGPYGVVLTILLGVFLLGFFLDWVEITLIILPLVAPVVQQLGFDLVWFTILFAMCLQTSFLTPPVGFALFYIKGVAPPEIKVTDIYRGVIPFIIIQLVALAIVFVVPEIATWLPGVAYD | failed
15 | MELGAYRWKAPVGYLDEYVKSFRERKIIGSLCASCGRVYVPPREICARCFTETAEKVEVSQYGEVLAFLVSPPLEKGKVVIAGIDAVQAGFLKEGEQIILAMVRFEGTSSSLVLPLINTEPEKVRVGMKVKAVWAEECKGKLADLIGVEPAFEVIYKLEHHHHHH | failed
16 | MELIFLGTSAGVPTRTRNVTAILLNLQHPTQSGLWLFDCGEGTQHQLLHTAFNPGKLDKIFISHLHGDHLFGLPGLLCSRSMSGIIQPLTIYGPQGIREFVETALRISGSWTDYPLEIVEIGAGEILDDGLRKVTAYPLEHPLECYGYRIEEHDKPGALNAQALKAAGVPPGPLFQELKAGKTITLEDGRQINGADYLAAPVPGKALAIFGDTGPCDAALDLAKGVDVMVHEATLDITMEAKANSRGHSSTRQAATLAREAGVGKLIITHVSSRYDDKGCQHLLRECRSIFPATELANDFTVFNV | failed
17 | MELKNVKDAFDRVTKKQKLCYSKTHEVVDKMSQEIDKALKTIQEDNHESVVADLKKTFEEIAPINLLEASQKEINGVLTKYPKALDKTLNPDISTAYRNVKFDTHTVHQILAQFFYRQGMYDVGDCFISETGEVKPESSVTKAFMEMNMILEAMKERDLGPALKWVASNSDKLKEAKSDLELKLHSLHFLEIAKDKTSEEAINYARKHFATYSADSCCFPEIQKLMCSLLWIRNLNKSPYSEFLSPVLWTNAAKELTRQYCILLGESPESPLSVTVAAGSQVLPTFLKYLNVLPEKRKEWQTMEQLLVPVELSEEYRFYSVFVCPVSKEHSSEDNPPMRLACGHVLCKQSINRMSRNGSRSFKCPYCPTDIDASQCKQLYF | failed
18 | MELMIGRVVKSHGIRGEVAIEVTTEEPEIRFAQGEVLNGRQGGKEHSLTIASVRPHQNRLLVKFKEIADRTAADSLRGTRFFAAPLDDDVDDGFYDHELEGLAVIHGEEKIGEVSGVIHGPAQSLLEVTLESGKEVLIPFVHDIVPEVDLDAGTCVITPPEGLLELLEHHHHHH | not failed
19 | MELPSFIFQAQENLVERPWGGEWIALLKGFRQSGIGESWEFSAHTSRPSTVLVKGQQLSMIELFSKHRDELLGRAAEKFSKFPILVRLIDAASPTQVHVHPSDKAAESLGEAEGGVESAWLVFNKGKAYAGFKEDVKIEELEEKLKEEDFDFKTLLNTFETTPYDTFVIRPGIPHAGEGLRVLEVSSNSTLAYFFNENDWEKVKKVLNTKKVEEFEVKGKKGMAETENFGLEVVDVTGTAEIKTGGVMNILYAAEGYFILRGKETADLHRGYSCLVPASTDSFTVESERGKIVRIYLKV | not failed
20 | MELSINILNIIGILLEIGVSIYIIISEKKKSKNRNSEAENDLIQQTNNIINNTQGDNASFNYTNVLMQSKYQERAYREILNDLGDKKENKQKSKYGKKCSYLRKVINIVCLGIGGFWAFYYFDLMKITSFNTYLLNVLFQTIYTLATFILIFSLSNFVKLFLIHFKEYNYIVLRKIQLFLTTLFALLGATIWLYFDWRANFRPLFNMYTESSYYTLGIIMLGLVFYVFHQMAQSFLLNNIWVPKKAVKILFVSLIFSLIASICLFI | failed
